Results from publication doi:10.1101/299487 (bioRxiv, 2018).
Where two headings read alike, the source gives them in different places.

What was measured:
cryo-EM structure [1] = target: the molecule itself; test: cryo-EM structure
cryo-EM structure [2] = target: the molecule itself; test: cryo-EM structure; remark: listed apart in the source

Protein	stoichiometry N (cryo-EM structure [1])	stoichiometry N (cryo-EM structure [2])
Dam1C/DASH heterodecamer (recombinant) (complex, yeast (budding yeast)) chain 1: MSEDKAKLGTTRSATEYRLSIGSAPTSRRSSMGESSSLMKFADQEGLTSSVGEYNENTIQQLLLPKIRELSDSIITLDSNFTRLNFIHESLADLNESLGSLLYGIMSNSWCVEFSQAPHDIQDDLIAIKQLKSLEDEKNNLVMELSNMERGIKRKKDEQGENDLAKASQNKQFNQPLFPSSQVRKYRSYDNRDKRKPSKIGNNLQVENEEDYEDDTSSEASFVLNPTNIGMSKSSQGHVTKTTRLNNNTNSKLRRKSILHTIRNSIASGADLPIENDNVVNLGDLHPNNRISLGSGAARVVNGPVTKNRNSMFSGRAERKPTESRHSVAKKTEKKINTRPPFR chain 2: MMASTSNDEEKLISTTDKYFIEQRNIVLQEINETMNSILNGLNGLNISLESSIAVGREFQSVSDLWKTLYDGLESLSDEAPIDEQPTLSQSKTK chain 3: MDSIDEQIAIKRKELQSLQKITSLTDGLKIQLTELNEQIKEMGMNADSVAQLMNNWDSIINNISQASLGLLQYAEGDYEIGPWKDSKKKESEQSNETGLEAQENDKNDEDNDEDEDLVPLPETMVRIRVDGNE chain 4: MEHNLSPLQQEVLDKYKQLSLDLKALDETIKELNYSQHRQQHSQQETVSPDEILQEMRDIEVKIGLVGTLLKGSVYSLILQRKQEQESLGSNSK chain 5: MENPHEQVQANILSRIIGNVKRLNESVAILNQELVTINNRNKNLEIMGAICDNYHSSVQFNLEATNNKKPPL chain 6: MSEQSQLDDSTIDKLIPQIFNEMRSNLNNTTNKFPKSTGGGASDNISANSNSIRSFNSITTQSLLKESESLDKITAMIKNVTAALKNNLPVYVNQVHEVCKSTNSILDSWINIHSQAGYIHKLMSDQTYLKLINDRLHNENVNTNDEDGSTLHNVIALKKKEILDLRQKLENRKGEKDAAPAKPPNQGLNPRYGVQSGRRPVPSAGISNNGRVRKTHVPASKRPSGIPRVTNRWTKPTASSSRKMFR chain 7: MDSASKEETLEKLDQEITVNLQKIDSNLSFCFHKITQDIIPHVATYSEICERIMDSTEWLGTMFQETGLVNLQANAAAPVGNAPVKSLVSNNVGIFPTSAEEASRQSQTDNGPNEADSAVHVNRDVHSMFNNDSIDDFHTANITSTGQILKLPDSSDEDTGSEAVPSREQTDLTGEGHGGADDEQDESTIQRQSRKRKISLLLQQQYGSSSSMVPSPIVPNKMRKQLAHEEHINNDGDNDDENSNNIESSPLKQGHHHPKGQADDNNEGPDEEESTKEVPKPGTIIHFSTNR chain 8: MTDALEQSVLALEGTVSVLKDSVESLKCANEPSTNLASTMLQTKRVFRLVPEYDVERSKLDLIEEVEPLVRTLGDKLRKSMGRMQRELDTLQQTYELNDLRLKKNISMDDDDALNSPDMGQEYEGRDADDVVMMASSTNEELEELKKLKEKKKQLENKLEILKQK chain 9: MGESLDRCIDDINRAVDSMSTLYFKPPGIFHNAILQGASNKASIRKDITRLIKDCNHDEAYLLFKVNPEKQSVSRRDGKEGVFDYVIKRDTDMKRNRRLGRPGEKPIIHVPKEVYLNKDRLDLNNKRRRTATTSGGGLNGFIFDTDLIGSSVISNSSSGTFKALSAVFKDDPQIQRLLYALENGSVLMEEESNNQRRKTIFVEDFPTDLILKVMAEVTDLWPLTEFKQDYDQLYHNYEQLSSKLRFIKKEVLLQDDRLKTMSQYHPSSSHDVAKIIRKEKDEIRRLEMEIANLQE chain 10: MNANKQRQYNQLAHELRELQTNLQETTKQLDIMSKQCNENLVGQLGKVHGSWLIGSYIYYMEQMLGKTQ	17	
Dam1C/DASH outer-kinetochore complex in yeast cells (complex) chain 1: MSEDKAKLGTTRSATEYRLSIGSAPTSRRSSMGESSSLMKFADQEGLTSSVGEYNENTIQQLLLPKIRELSDSIITLDSNFTRLNFIHESLADLNESLGSLLYGIMSNSWCVEFSQAPHDIQDDLIAIKQLKSLEDEKNNLVMELSNMERGIKRKKDEQGENDLAKASQNKQFNQPLFPSSQVRKYRSYDNRDKRKPSKIGNNLQVENEEDYEDDTSSEASFVLNPTNIGMSKSSQGHVTKTTRLNNNTNSKLRRKSILHTIRNSIASGADLPIENDNVVNLGDLHPNNRISLGSGAARVVNGPVTKNRNSMFSGRAERKPTESRHSVAKKTEKKINTRPPFR chain 2: MMASTSNDEEKLISTTDKYFIEQRNIVLQEINETMNSILNGLNGLNISLESSIAVGREFQSVSDLWKTLYDGLESLSDEAPIDEQPTLSQSKTK chain 3: MDSIDEQIAIKRKELQSLQKITSLTDGLKIQLTELNEQIKEMGMNADSVAQLMNNWDSIINNISQASLGLLQYAEGDYEIGPWKDSKKKESEQSNETGLEAQENDKNDEDNDEDEDLVPLPETMVRIRVDGNE chain 4: MEHNLSPLQQEVLDKYKQLSLDLKALDETIKELNYSQHRQQHSQQETVSPDEILQEMRDIEVKIGLVGTLLKGSVYSLILQRKQEQESLGSNSK chain 5: MENPHEQVQANILSRIIGNVKRLNESVAILNQELVTINNRNKNLEIMGAICDNYHSSVQFNLEATNNKKPPL chain 6: MSEQSQLDDSTIDKLIPQIFNEMRSNLNNTTNKFPKSTGGGASDNISANSNSIRSFNSITTQSLLKESESLDKITAMIKNVTAALKNNLPVYVNQVHEVCKSTNSILDSWINIHSQAGYIHKLMSDQTYLKLINDRLHNENVNTNDEDGSTLHNVIALKKKEILDLRQKLENRKGEKDAAPAKPPNQGLNPRYGVQSGRRPVPSAGISNNGRVRKTHVPASKRPSGIPRVTNRWTKPTASSSRKMFR chain 7: MDSASKEETLEKLDQEITVNLQKIDSNLSFCFHKITQDIIPHVATYSEICERIMDSTEWLGTMFQETGLVNLQANAAAPVGNAPVKSLVSNNVGIFPTSAEEASRQSQTDNGPNEADSAVHVNRDVHSMFNNDSIDDFHTANITSTGQILKLPDSSDEDTGSEAVPSREQTDLTGEGHGGADDEQDESTIQRQSRKRKISLLLQQQYGSSSSMVPSPIVPNKMRKQLAHEEHINNDGDNDDENSNNIESSPLKQGHHHPKGQADDNNEGPDEEESTKEVPKPGTIIHFSTNR chain 8: MTDALEQSVLALEGTVSVLKDSVESLKCANEPSTNLASTMLQTKRVFRLVPEYDVERSKLDLIEEVEPLVRTLGDKLRKSMGRMQRELDTLQQTYELNDLRLKKNISMDDDDALNSPDMGQEYEGRDADDVVMMASSTNEELEELKKLKEKKKQLENKLEILKQK chain 9: MGESLDRCIDDINRAVDSMSTLYFKPPGIFHNAILQGASNKASIRKDITRLIKDCNHDEAYLLFKVNPEKQSVSRRDGKEGVFDYVIKRDTDMKRNRRLGRPGEKPIIHVPKEVYLNKDRLDLNNKRRRTATTSGGGLNGFIFDTDLIGSSVISNSSSGTFKALSAVFKDDPQIQRLLYALENGSVLMEEESNNQRRKTIFVEDFPTDLILKVMAEVTDLWPLTEFKQDYDQLYHNYEQLSSKLRFIKKEVLLQDDRLKTMSQYHPSSSHDVAKIIRKEKDEIRRLEMEIANLQE chain 10: MNANKQRQYNQLAHELRELQTNLQETTKQLDIMSKQCNENLVGQLGKVHGSWLIGSYIYYMEQMLGKTQ		17
